Consider 1 molecule from patent US9120862.

The target in assay [1] is monoclonal antibody 3C10 (produced by hybridoma cell line ATCC deposit designation PTA-9638). The experiment in a line: FCS competition: 2 nM Alexa488-PIVKA-II (13-27) premixed with 10 nM mAb 3C10, unlabelled PIVKA-II (13-27) added, overnight; D of the tracer (high D = tracer displaced).
Assay [2] shares this target. The experiment in a line: FCS competition: 2 nM Alexa488-PIVKA-II (13-27) tracer + 10 nM mAb 3C10, competitor titrated; apparent diffusion coefficient of the tracer.

Bridge positions count the residues as written; N and C are the ends. Ends that are not written are not given here.

Take LERECVEETCSYEEA (disulfide 5-10 (inferred)) [PIVKA-II (13-27) peptide, unlabelled (positive control competitor)]: the Apparent Diffusion Coefficient (D) in assay [1] was 174 um^2/sec. For the same molecule, the IC50 (read off the curve) in assay [2] was found to be 50 nM.
